From paper doi:10.1101/2023.02.03.526715 (bioRxiv, 2023)

Molecular target: recombinant human cardiac troponin I tagged with GST (human, UniProt P19429 1-210)
Assay: ELISA

Chain of recombinant human cardiac troponin I tagged with GST (P19429 whole entry): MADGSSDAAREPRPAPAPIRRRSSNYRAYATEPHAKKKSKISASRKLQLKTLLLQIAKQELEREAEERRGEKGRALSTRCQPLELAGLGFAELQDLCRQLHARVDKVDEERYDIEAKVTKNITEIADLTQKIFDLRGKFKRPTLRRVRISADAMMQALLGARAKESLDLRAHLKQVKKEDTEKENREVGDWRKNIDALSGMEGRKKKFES

AGRKLALKTI [P888, ten amino acid peptide corresponding to ATP synthase subunit d residues 2-11]
binding result: binds
